From paper PMC11117730, “A Novel Bifunctional Fusion Protein (Anti-IL-17A-sST2) Protects against Acute Liver Failure, Modulating the TLR4/MyD88 Pathway and NLRP3 Inflammasome Activation” (Biomedicines, 2024)

Target: T1, sST2-Fc (mouse, UniProt P14719 27-332)
T1 construct: mouse ST2L (IL-33 receptor), amino acids 27-332, cloned into a pTT5 vector that contains the human IgG4 Fc domain; also called soluble ST2 Fc fusion
T1 sequence (looked up): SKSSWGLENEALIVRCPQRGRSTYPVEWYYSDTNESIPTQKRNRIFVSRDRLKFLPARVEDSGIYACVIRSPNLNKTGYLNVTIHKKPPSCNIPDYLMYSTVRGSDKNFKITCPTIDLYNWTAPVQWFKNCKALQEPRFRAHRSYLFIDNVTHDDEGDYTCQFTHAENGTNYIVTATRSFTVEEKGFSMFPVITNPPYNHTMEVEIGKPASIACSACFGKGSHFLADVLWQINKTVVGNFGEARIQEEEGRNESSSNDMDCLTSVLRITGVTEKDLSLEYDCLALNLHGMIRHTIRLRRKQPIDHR
Assay: SPR; Biacore T200; antigen (mouse IL-33) immobilised on CM5 by amine coupling; proteins flowed in a 2-fold dilution series for 120 s, dissociation 480 s
Conditions: both partners purified

B1: mouse IL-33 (ligand)
chain: SIQGTSLLTQSPASLSTYNDQSVSFVLENGCYVINVDDSGKDQEQDQVLLRYYESPCPASQSGDGVDGKKLMVNMSPIKDTDIWLHANDKDYSVELQRGDVSPPEQAFFVLHKKSSDFVSFECKNLPGTYIGVKDNQLALVEEKDESCNNIMFKLSKI
B1 was tested. Which Kd did it give?
The Kd was 0.174 nM.
